Assay results reported in patent publication US10688197B2, “Non-alcoholic fatty liver regulator 14-3-3 protein” (Korea University Research and Business Foundation, priority 2015, dated 2020).

How the values were obtained:
[1] = target: T1, PPARγ2 S273A mutant (Homo sapiens, UniProt P37231, S273A); test: aP2 promoter luciferase reporter with PPARγ2 S273A mutant in HEK-293T cells; format: cell-based; settings: overexpression of 14-3-3β or 14-3-3γ, FIG. 4C/4D
T1 construct: expressed in transfected cells; host or cells: HEK-293T
T1 sequence (P37231 1-505 S273A): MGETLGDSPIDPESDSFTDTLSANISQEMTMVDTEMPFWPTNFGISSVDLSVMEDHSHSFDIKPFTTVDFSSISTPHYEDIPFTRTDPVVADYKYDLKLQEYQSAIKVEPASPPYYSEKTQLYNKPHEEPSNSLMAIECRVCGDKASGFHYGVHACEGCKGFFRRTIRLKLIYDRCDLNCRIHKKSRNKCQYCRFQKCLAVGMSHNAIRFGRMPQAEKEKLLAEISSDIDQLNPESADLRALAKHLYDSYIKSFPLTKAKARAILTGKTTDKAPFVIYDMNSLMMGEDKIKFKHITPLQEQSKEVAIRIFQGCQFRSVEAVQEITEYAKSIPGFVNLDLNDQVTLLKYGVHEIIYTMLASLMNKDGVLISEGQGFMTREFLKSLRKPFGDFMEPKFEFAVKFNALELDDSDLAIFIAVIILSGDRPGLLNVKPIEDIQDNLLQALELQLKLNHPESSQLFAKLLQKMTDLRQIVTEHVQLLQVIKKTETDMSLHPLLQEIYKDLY
Protocol: In addition, HEK-293T cells were seeded in a 12-well plate at a density of 1×10^5 cells per each well, and then transfected with an aP2 promoter construct (0.5 μg), Flag-PPARγ2 (S112A) DNA (0.5 μg) or Flag-PPARγ2 (S273A) DNA (0.5 μg), and mGST-14-3-3β DNA (0.5 μg) or mGST-14-3-3γ DNA (0.5 μg) using an E-fection plus reagent (Lugen). A ratio of DNA to the E-fection plus reagent was 1:2, and this method was performed according to a manufacturer's manual. The corresponding cells were washed with ice-cold PBS, and lysed using 80 μl/well of a reporter lysis buffer (Promega, Madison, Wis.), and the lysed cells were centrifuged at 10,000×g and 4° C. for 10 minutes to collect a supernatant, and luciferase activity was measured. As an instrument, Luminometer 20/20n (Turner Biosystems, Sunnyvale, Calif.) was used. For normalization, the cells were cotransfected with pSV40-β-galactosidase. For the collected supernatant, β-galactosidase activity was measured and the luciferase activity was revised, and the obtained values were plotted. At this time, a β-galactosidase enzyme analysis system (Promega, Madison, Wis.) was used, and analysis was performed using a DU530 spectrophotometer (Beckman Instruments, Palo Alto, Calif.).

[2] = target: T2, PPARγ2 deletion mutant (1-310) (Homo sapiens, UniProt P37231); test: GST-pull down assay with PPARγ2 deletion mutant (1-310); format: binding; settings: FIG. 3B/3C
T2 construct: Flag-PPARγ2 (1-310) DNA (4 μg); expressed in transfected cells; host or cells: HEK-293T
T2 sequence (P37231 1-310): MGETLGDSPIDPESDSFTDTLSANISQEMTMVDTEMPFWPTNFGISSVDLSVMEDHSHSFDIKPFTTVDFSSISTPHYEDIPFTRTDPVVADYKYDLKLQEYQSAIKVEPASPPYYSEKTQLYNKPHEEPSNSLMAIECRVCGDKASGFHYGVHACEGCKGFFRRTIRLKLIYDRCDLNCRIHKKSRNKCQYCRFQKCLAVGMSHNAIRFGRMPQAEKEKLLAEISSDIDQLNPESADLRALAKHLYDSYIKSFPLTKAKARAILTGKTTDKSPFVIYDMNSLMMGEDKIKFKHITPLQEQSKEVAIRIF
Protocol: HEK-293T cells were seeded in a 100 mm plate at a density of 2×10^6 cells per each well, and then transfected with Flag-PPARγ2 (1-505) DNA (4 μg), Flag-PPARγ2 (1-310) DNA (4 μg), Flag-PPARγ2 (139-505) DNA (4 μg), and mGST-14-3-3β (4 μg) or mGST-14-3-3γ (4 μg) using an E-fection plus reagent (Lugen). For Flag-PPARγ2 (1-310) DNA and Flag-PPARγ2 (139-505) DNA, DNA fragments amplified through polymerase chain reaction (PCR) were cloned into a pCMV-3Tag-1 vector using restriction enzymes XhoI and ApaI. A ratio of DNA to the E-fection plus reagent was 1:2, and this method was performed according to a manufacturer's manual. The corresponding cells were washed with ice-cold PBS and lysed using 500 μl/well of a lysis buffer (150 mM NaCl, 1 mM EDTA, 1% Nonidet P-40, 5% glycerol, 25 mM tris-HCl, pH 7.5, protease inhibitor added), and the lysed cells were centrifuged at 10,000×g and 4° C. for 10 minutes to extract proteins. Thereafter, 1,000 μg of the proteins was reacted with 20 μl of glutathione Sepharose 4B beads (GE Healthcare, Buckinghamshire, UK) for 6 hours, and then washing of the beads with 1 ml of ice-cold PBS was repeated 5 times, and the beads were boiled at 100° C. for 10 minutes, followed by 10% SDS-PAGE gel separation and western blotting. A ratio of GST antibodies (Santa Cruz) to Flag antibodies (Santa Cruz) was 1:3000. […]

Substance | transcriptional activity of PPARγ2 S273A mutant [1] | binding to PPARγ2 deletion mutant (1-310) [2]
14-3-3β: 14-3-3 isoform protein overexpressed by DNA transfection; increases the transcriptional activity of PPARγ2 by binding to PPARγ2 | no change | bound
14-3-3γ: 14-3-3 isoform protein overexpressed by DNA transfection; decreases the transcriptional activity of PPARγ2; proposed active ingredient | no change | bound
